# Experiments:
# Details in all cases: partners not purified
# mKO-PBP2^L61R = biological target: T1, mKO-PBP2^L61R (E. coli, UniProt P0AD65 1-633, L61R); test: FRET or BRET; as the two-plasmid FRET, cells treated with mecillinam (2 mg/L) for two mass doublings
# T1 construct: PBP2 of E. coli with L61R (hyperactive variant); made from pWA004 by mutagenesis PCR; also called hyperactive PBP2^L61R; source: E. coli LMC500, expressed from plasmid (15 uM IPTG), in fixed cells; not shown: mKO, N-terminal, kept
# T1 sequence (looked up): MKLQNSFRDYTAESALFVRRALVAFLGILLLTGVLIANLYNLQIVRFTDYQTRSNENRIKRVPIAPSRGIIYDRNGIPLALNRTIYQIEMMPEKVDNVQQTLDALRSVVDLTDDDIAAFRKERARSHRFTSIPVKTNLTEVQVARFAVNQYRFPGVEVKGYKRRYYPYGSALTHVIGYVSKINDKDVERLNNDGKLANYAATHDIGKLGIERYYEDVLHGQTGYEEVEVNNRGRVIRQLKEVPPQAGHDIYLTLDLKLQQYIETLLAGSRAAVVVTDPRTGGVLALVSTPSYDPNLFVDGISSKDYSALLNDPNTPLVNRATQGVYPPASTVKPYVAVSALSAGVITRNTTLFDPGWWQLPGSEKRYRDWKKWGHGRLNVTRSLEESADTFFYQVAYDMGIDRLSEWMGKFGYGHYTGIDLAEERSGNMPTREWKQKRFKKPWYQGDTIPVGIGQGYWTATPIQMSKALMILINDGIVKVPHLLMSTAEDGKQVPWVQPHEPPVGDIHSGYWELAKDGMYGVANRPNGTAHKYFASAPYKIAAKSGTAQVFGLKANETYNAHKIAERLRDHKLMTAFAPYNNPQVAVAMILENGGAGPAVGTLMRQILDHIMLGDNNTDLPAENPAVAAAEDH
# [1] = biological target: T2, PBP2 (wild type), fused to mKO or to mCherry (E. coli, UniProt P0AD65 1-633); test: as above
# T2 construct: PBP2, peptidoglycan transpeptidase of the E. coli elongasome, wild type; mKO-PBP2 in all others; also called mKO-PBP2^WT; mKO-PBP2; source: E. coli LMC500, expressed from plasmid (15 uM IPTG), in fixed cells; not shown: mKO (donor construct, pWA004) or mCherry (acceptor construct), N-terminal, kept
# T2 sequence (looked up): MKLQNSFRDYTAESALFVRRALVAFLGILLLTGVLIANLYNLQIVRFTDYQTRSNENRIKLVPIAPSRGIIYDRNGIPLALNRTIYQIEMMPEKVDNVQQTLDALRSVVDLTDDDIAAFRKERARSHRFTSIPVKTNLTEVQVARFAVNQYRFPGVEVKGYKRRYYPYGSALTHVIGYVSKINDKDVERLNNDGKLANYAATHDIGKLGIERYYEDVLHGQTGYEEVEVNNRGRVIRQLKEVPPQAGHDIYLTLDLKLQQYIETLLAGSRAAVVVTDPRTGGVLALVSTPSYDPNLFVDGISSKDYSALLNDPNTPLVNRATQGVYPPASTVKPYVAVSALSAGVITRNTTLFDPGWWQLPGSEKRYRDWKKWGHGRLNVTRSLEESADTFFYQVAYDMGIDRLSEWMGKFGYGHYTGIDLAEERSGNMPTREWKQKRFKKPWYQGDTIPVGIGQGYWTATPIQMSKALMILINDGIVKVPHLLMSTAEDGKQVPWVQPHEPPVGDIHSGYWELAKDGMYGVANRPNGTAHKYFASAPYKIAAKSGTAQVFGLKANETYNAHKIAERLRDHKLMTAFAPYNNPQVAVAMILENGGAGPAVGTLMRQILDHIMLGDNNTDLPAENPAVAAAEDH
# mKO-^MalF37PBP2 = biological target: T3, mKO-^MalF37PBP2 (E. coli, UniProt P02916 1-37; P0AD65 46-633); test: as above
# T3 construct: MalF of E. coli, the first 37 residues (cytoplasmic N-terminus and transmembrane helix), amplified from the MG1655 genome; PBP2 of E. coli excluding the first 45 residues (NT and TMH removed, periplasmic domain kept); also called PBP2 with the NT and TMH of MalF; source: E. coli LMC500, expressed from plasmid (15 uM IPTG), in fixed cells; not shown: mKO, N-terminal, kept
# T3 chain (looked up): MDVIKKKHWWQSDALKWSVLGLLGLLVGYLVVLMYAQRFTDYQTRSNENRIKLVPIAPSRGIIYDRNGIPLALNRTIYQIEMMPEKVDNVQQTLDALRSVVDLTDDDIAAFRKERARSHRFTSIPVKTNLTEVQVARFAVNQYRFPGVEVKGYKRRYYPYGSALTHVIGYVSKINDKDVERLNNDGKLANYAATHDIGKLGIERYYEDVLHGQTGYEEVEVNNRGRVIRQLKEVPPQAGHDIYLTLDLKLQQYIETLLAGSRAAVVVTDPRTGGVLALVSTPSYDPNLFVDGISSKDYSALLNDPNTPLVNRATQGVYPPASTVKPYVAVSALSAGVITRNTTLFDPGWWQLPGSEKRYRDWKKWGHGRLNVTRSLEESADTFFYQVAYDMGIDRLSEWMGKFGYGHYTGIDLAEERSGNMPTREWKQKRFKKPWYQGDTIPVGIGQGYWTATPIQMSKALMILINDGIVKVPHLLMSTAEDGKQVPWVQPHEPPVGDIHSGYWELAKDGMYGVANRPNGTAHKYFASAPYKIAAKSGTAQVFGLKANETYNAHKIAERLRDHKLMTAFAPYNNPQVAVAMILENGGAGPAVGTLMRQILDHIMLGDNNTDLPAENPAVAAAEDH
# [2] = biological target: T2, PBP2 (wild type), fused to mKO or to …; test: FRET or BRET; two-plasmid spectral FRET in E. coli LMC500 cells; mCherry fusion as acceptor, mKO fusion as donor; Gb4 medium, steady state at 28 C, 15 uM IPTG for two mass doublings, FAGA-fixed; acceptor FRET efficiency (EfA) by spectral unmixing
binder,measurement,setting,value
"RodA (wild type), fused to mCherry or to mKO (enzyme, E. coli, UniProt P0ABG7 1-370, looked up, RodA, peptidoglycan glycosyltransferase of the E. coli elongasome; wild-type rodA gene; mCh-RodA in all others; also called mCh-RodA; mKO-RodA; source: E. coli LMC500, expressed from plasmid (15 uM IPTG), in fixed cells; not shown: mCherry (acceptor construct, pSAV047-RodA) or mKO (donor construct, pXL56), N-terminal, kept) MTDNPNKKTFWDKVHLDPTMLLILLALLVYSALVIWSASGQDIGMMERKIGQIAMGLVIMVVMAQIPPRVYEGWAPYLYIICIILLVAVDAFGAISKGAQRWLDLGIVRFQPSEIAKIAVPLMVARFINRDVCPPSLKNTGIALVLIFMPTLLVAAQPDLGTSILVALSGLFVLFLSGLSWRLIGVAVVLVAAFIPILWFFLMHDYQRQRVMMLLDPESDPLGAGYHIIQSKIAIGSGGLRGKGWLHGTQSQLEFLPERHTDFIFAVLAEELGLVGILILLALYILLIMRGLWIAARAQTTFGRVMAGGLMLILFVYVFVNIGMVSGILPVVGVPLPLVSYGGSALIVLMAGFGIVMSIHTHRKMLSKSV",EfA (acceptor FRET efficiency),mKO-PBP2^L61R,6.3%
same,EfA (acceptor FRET efficiency),[1],7.9%
same,EfA (acceptor FRET efficiency),mKO-^MalF37PBP2,3%
same,EfA (acceptor FRET efficiency),[2],12.7%

# — publication PMC7793260, “MreC and MreD balance the interaction between the elongasome proteins PBP2 and RodA” (PLoS Genetics, 2020)
